The record followed here is patent US20230272020A1 (MEDICAL RESEARCH AND DEVELOPMENT FUND FOR HEALTH SERVICES …, published 2023).

One test deals with T1, neuropilin-1 receptor (human, UniProt O14786 22-923).
T1 construct: whole, on cells; Endogenous receptor on human cells; also called Nrp1; nrp1
As to the kind of experiment: Sema3A-AP on parental U87MG cells expressing Nrp1, alkaline phosphatase colorimetric assay.

Test [1] has as its target T2, WT-Sema3A with C-terminal His tag (human, UniProt Q14563 21-771, limits assumed).
T2 construct: also called wild type Sema3A; WT-Sema3A peptide; not shown: C-terminal His tag
T2 sequence: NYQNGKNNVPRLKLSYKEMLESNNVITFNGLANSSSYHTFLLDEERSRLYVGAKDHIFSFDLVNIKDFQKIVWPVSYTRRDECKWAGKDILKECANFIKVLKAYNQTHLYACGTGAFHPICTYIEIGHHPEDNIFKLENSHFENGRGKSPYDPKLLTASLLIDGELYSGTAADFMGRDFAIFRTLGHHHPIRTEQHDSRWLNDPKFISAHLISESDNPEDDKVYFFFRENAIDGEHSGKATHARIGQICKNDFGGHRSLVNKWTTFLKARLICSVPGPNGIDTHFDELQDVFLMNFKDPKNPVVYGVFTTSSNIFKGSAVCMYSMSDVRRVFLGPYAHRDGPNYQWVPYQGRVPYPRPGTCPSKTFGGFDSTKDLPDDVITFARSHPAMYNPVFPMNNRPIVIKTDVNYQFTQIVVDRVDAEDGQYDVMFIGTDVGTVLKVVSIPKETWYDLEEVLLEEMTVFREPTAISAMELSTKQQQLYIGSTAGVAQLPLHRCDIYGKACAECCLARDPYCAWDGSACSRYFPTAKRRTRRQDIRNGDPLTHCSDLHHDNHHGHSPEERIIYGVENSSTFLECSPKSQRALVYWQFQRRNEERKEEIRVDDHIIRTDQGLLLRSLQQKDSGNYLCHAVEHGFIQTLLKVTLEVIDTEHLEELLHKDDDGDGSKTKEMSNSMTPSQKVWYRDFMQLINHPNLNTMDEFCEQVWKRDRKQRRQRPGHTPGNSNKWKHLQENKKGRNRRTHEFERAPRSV
As to the kind of experiment: inferred by the filing from the phosphorylation assay in BLCL versus BLCL+CD72 cells. Here is the method: Cells were serum starved for 16 h. At the day of the experiment, cells were activated with 5 μg/ml anti IgM for 5 min at 37° C. and then 10 μg/ml of Sema3A or elution buffer as a control were added for extra 10 min at 37° C. The experiment was terminated by a wash with ice cold PBS and lysed with phosphorylation lysis buffer (50 mM Tris-HCl pH-7.5, 150 mM NaCl, 2 mM EDTA, 2 mM EGTA, 5 mM NaF, 2 mM Na₃VO₄, 10 mM Na₄P₂O₇, 1% Triton X-100). 80 μg of proteins were subjected to SDS-PAGE and immunoblotted with an antibody directed against phosphorylated target protein, the blot was then stripped and re-probed with an antibody directed against total protein. Western blots were probed with the following antibodies: anti STAT4 (C-4) (Santa Cruz Biotechnology), anti phospho-STAT4 (Tyr693) (Santa Cruz Biotechnology), p38 MAPK Antibody (Cell Signaling Technology, Inc), Phospho-p38 MAPK (Thr180/Tyr182) Antibody (Cell Signaling Technology, Inc). Quantification of band intensity was performed using ImageQuant LAS 4000 program.
To test whether Sema3A signal transduction is mediated by CD72, Furthermore, CD72 was expressed in primary B-lymphoblastoid cells that lack neuropilin-1. […] Next, BLCL cells and BLCL cells expressing CD72 (BLCL+CD72) were stimulated with WT-Sema3A peptide. The phosphorylation state of Stat-4 and P38 was than determined. […]

T1 sequence (O14786 22-923): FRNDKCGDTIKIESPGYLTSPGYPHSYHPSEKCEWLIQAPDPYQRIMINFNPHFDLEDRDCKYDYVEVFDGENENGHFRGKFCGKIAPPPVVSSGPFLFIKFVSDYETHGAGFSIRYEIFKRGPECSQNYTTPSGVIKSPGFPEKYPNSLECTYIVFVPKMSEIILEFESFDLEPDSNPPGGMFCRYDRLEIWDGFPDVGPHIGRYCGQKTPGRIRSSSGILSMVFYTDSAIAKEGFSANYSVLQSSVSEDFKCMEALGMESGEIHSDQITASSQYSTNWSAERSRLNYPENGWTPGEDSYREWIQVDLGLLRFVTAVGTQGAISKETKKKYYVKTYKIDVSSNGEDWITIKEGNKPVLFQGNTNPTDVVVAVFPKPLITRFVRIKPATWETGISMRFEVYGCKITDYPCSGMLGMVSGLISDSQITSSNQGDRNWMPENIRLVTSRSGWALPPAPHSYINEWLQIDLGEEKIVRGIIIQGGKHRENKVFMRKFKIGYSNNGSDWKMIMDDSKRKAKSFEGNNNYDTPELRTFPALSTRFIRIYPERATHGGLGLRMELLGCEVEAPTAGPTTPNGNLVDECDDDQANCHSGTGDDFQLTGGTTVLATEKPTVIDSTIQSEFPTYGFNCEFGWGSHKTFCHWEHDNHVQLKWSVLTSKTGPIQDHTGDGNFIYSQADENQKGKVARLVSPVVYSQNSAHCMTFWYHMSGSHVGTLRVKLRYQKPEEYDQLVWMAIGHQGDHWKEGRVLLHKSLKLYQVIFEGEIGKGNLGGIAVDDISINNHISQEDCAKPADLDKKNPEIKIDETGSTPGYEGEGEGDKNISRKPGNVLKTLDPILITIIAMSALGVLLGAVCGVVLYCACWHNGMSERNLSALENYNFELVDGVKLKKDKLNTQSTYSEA

B1: Sema3A-AP (WT-Sema3A in frame with alkaline phosphatase) (ligand)
chain: NYQNGKNNVPRLKLSYKEMLESNNVITFNGLANSSSYHTFLLDEERSRLYVGAKDHIFSFDLVNIKDFQKIVWPVSYTRRDECKWAGKDILKECANFIKVLKAYNQTHLYACGTGAFHPICTYIEIGHHPEDNIFKLENSHFENGRGKSPYDPKLLTASLLIDGELYSGTAADFMGRDFAIFRTLGHHHPIRTEQHDSRWLNDPKFISAHLISESDNPEDDKVYFFFRENAIDGEHSGKATHARIGQICKNDFGGHRSLVNKWTTFLKARLICSVPGPNGIDTHFDELQDVFLMNFKDPKNPVVYGVFTTSSNIFKGSAVCMYSMSDVRRVFLGPYAHRDGPNYQWVPYQGRVPYPRPGTCPSKTFGGFDSTKDLPDDVITFARSHPAMYNPVFPMNNRPIVIKTDVNYQFTQIVVDRVDAEDGQYDVMFIGTDVGTVLKVVSIPKETWYDLEEVLLEEMTVFREPTAISAMELSTKQQQLYIGSTAGVAQLPLHRCDIYGKACAECCLARDPYCAWDGSACSRYFPTAKRRTRRQDIRNGDPLTHCSDLHHDNHHGHSPEERIIYGVENSSTFLECSPKSQRALVYWQFQRRNEERKEEIRVDDHIIRTDQGLLLRSLQQKDSGNYLCHAVEHGFIQTLLKVTLEVIDTEHLEELLHKDDDGDGSKTKEMSNSMTPSQKVWYRDFMQLINHPNLNTMDEFCEQVWKRDRKQRRQRPGHTPGNSNKWKHLQENKKGRNRRTHEFERAPRSV
notes: Secreted by HEK293-Sema3A-AP cells and used as 50-fold concentrated conditioned medium; also called Sema3A-Alkaline Phosphatase; AP-Sema3A; not shown: alkaline phosphatase fused in frame
For B1, in the test with neuropilin-1 receptor, the binding result is “binds”.

B2: CD72 (full-length, untagged, on cells: BLCL-CD72 cells; CD4+ T cells) (receptor, human, UniProt P21854 1-359, looked up)
chain: MAEAITYADLRFVKAPLKKSISSRLGQDPGADDDGEITYENVQVPAVLGVPSSLASSVLGDKAAVKSEQPTASWRAVTSPAVGRILPCRTTCLRYLLLGLLLTCLLLGVTAICLGVRYLQVSQQLQQTNRVLEVTNSSLRQQLRLKITQLGQSAEDLQGSRRELAQSQEALQVEQRAHQAAEGQLQACQADRQKTKETLQSEEQQRRALEQKLSNMENRLKPFFTCGSADTCCPSGWIMHQKSCFYISLTSKNWQESQKQCETLSSKLATFSEIYPQSHSYYFLNSLLPNGGSGNSYWTGLSSNKDWKLTDDTQRTRTYAQSSKCNKVHKTWSWWTLESESCRSSLPYICEMTAFRFPD
notes: whole, on cells; also called CD72 receptor
In the case of B2, the binding result in test [1] is “binds”.
